Measured values from the supplement of paper PMC9170038.

System: MS2 coat protein
Test: apparent KD of MS2 coat protein; designed switch direction (-1 OFF switch, 1 ON switch): -1; higher = weaker reporter binding
Summary of the method: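 Apparent KD, taken as the median over clusters for each design, was obtained by curve-fitting normalised cluster fluorescence. Designed RNA switches had been transcribed on Illumina chips by stalled E. coli RNA polymerase and titrated with SNAP-549-labelled MS2 coat protein, doubling from 0.7 or 1.5 nM to 3 µM.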

[1] = input ligand: microRNA oligo, concentration not stated
[2] = Eterna round: R95, input ligand: microRNA oligo, concentration not stated

Sequence	apparent KD of MS2 coat protein (input ligand: FMN 200 uM)	apparent KD of MS2 coat protein (input ligand: none)	apparent KD of MS2 coat protein [1]	apparent KD of MS2 coat protein [2]	apparent KD of MS2 coat protein (Eterna round: R95, input ligand: FMN 200 uM)	apparent KD of MS2 coat protein (Eterna round: R95, input ligand: none)
AACCUAUGAGGAUAUACAUGAGGAUCACCCAUGUGUGAGCGUAUCUCAUCACCAAAUUGUAGAAGGCAUGGCGG [Eternabot (L1) Solution 38] (Eterna round: R97, puzzle: Exclusion 3)	68.3 nM	41.4 nM	–	–	–	–
AACCUGAGGCAAAGCUUUAGGUGUACAUGAGGAUCACCCAUGUAGGAUAUGGUAGGCUUUGCUUACCAGAAGGACAUUGGCGUA [Mat - Exclusion NG 3 - Mod of JL - D42] (Eterna round: R96, puzzle: Exclusion NG 3)	345 nM	91.7 nM	70.5 nM	–	–	–
AACCUGAGGCUUUGCUUUAGGUCUACAUGAGGAUCACCCAUGUAGGAUAUGGUAGGCUUUGCUUACCAGAAGGACAUGGUAAUU [JL ENG3 1.13] (Eterna round: R96, puzzle: Exclusion NG 3)	323 nM	65.5 nM	47.7 nM	–	–	–
AACCUGAGGCUUUGCUUUAGGUGAACAUGAGGAUCACCCAUGUAGGAUAUGGUAGGCUUUGCUUACCAGAAGGACAUAUUAAUU [JL ENG3 1.12] (Eterna round: R96, puzzle: Exclusion NG 3)	–	–	30.6 nM	–	–	–
AACCUGAGGCUUUGCUUUAGGUGUACAUGAGGAUCACCCAUGUAGGAUAUGGUAGGCAAAGCUUACCAGAAGGACAUUGGCGUA [Mat - Exclusion NG 3 - Mod of JL - D40] (Eterna round: R96, puzzle: Exclusion NG 3)	342 nM	107 nM	94.7 nM	–	–	–
AACCUGAGGCUUUGCUUUAGGUGUACAUGAGGAUCACCCAUGUAGGAUAUGGUAGGCUUUGCUUACCAGAAGGACAUUGGCGUA [Mat - Exclusion NG 3 - Mod of JL - D39] (Eterna round: R96, puzzle: Exclusion NG 3)	144 nM	77.2 nM	66.4 nM	–	–	–
AACCUGAGGCUUUGCUUUAGGUUUACAUGAGGAUCACCCAUGUAGGAUAUGGUAGGCUUUGCUUACCAGAAGGACAUGUUAAUU [Mat - Exclusion NG 3 - Mod of JL - D26] (Eterna round: R96, puzzle: Exclusion NG 3)	241 nM	44.2 nM	25 nM	–	–	–
AACGAGGCAGGAUAUACAUGAGGAUCACCCAUGUGCUUGCAUGGCGUGGGACGUCAACGUAGAAGGGCCAUGCC [EX3 #67] (Eterna round: R97, puzzle: Exclusion 3)	43.1 nM	45.6 nM	–	–	–	–
AACGAUACGCUCAUAAGAACAUGAGGAUCACCCAUGUGUGGUGAGGAUAUCCACCCAGAGGGAAAGGAGAAGGUACCAGUGGGC [Ries] (Eterna round: R96, puzzle: Exclusion NG 3)	31.3 nM	61 nM	61.8 nM	–	–	–
AACGAUCUAGGAUAUACAUGAGGAUCACCCAUGUAAGAGCCCAAACCAGGCUCCCUCUGUAGAAGGAGGUCAAA [Teleerre] (puzzle: Exclusion 3)	–	–	–	40.8 nM	–	–
AACGAUCUAGGAUAUACAUGAGGAUCACCCAUGUAAGAGCCCGAACCGGGCUCCCUCUGUAGAAGGAGGUCAAA [Rileququve] (puzzle: Exclusion 3)	–	–	–	27.3 nM	–	–
AACGCGUCAGGAUAUAGCGAAACUUAGGUAGUACAACCAUACUAGAAGGGACAUGAGGAUCACCCAUGUGGGUA [JR_Exc004_Sub210] (Eterna round: R96, puzzle: Exclusion 4)	171 nM	142 nM	104 nM	–	–	–
AACGGGACAGGAUAUGUCACGGAGAACAUGAGGAUCACCCAUGUGGCUUCGUGGUCUGUUGCAGAAGGGUCGAAAU [Vebedi] (Eterna round: R97, puzzle: Exclusion 5)	19.6 nM	11.9 nM	–	–	–	–
AACGUCUAGGUAGGAUAUCCACCAACAGGUGGAAGGAUAUGUACGCAGAAGGUUCGCCAACAGGCGGAGAAGGACCUACGCGUA [pwkr exNG2 2xF7 2xFMN.30] (Eterna round: R96, puzzle: Exclusion NG 2)	274 nM	340 nM	57.6 nM	–	–	–
AACGUGGCUUAGGAUAUUGCUACGCAAAAGUAACAAGAAGGAAGCACAUGAGGAUCACCCAUGUGAUUCGUUGA [Larevean] (puzzle: Exclusion 6)	–	–	–	12.2 nM	27.1 nM	13.3 nM
AACUAUGAAGGAUAUACAUGAGGAUCACCCAUGUUGAACUUGGCAUGUGCUCACAGAUGUAGAAGGUCAACCGU [Eternabot (Original) Solution 22] (Eterna round: R97, puzzle: Exclusion 3)	128 nM	43 nM	–	–	–	–
AACUCACAUGAGGAUCACCCAUGUGAGGAUAUGGAUUCGCUGGCCGUAGCCAGUGGAUCCAGAAGGCGCGUGAU [JL-ex1-4.26] (Eterna round: R97, puzzle: Exclusion 1)	56.7 nM	56.9 nM	–	–	–	–
AACUCACAUGAGGAUCACCCAUGUGAGGAUAUGUGAGUGUGUAUGUUAUUAUAUAUUUAUAGAAGGCGCGUGAU [JR_Exc1_Sub029] (Eterna round: R97, puzzle: Exclusion 1)	24.5 nM	23.1 nM	–	–	–	–
